Values of other authors, collected in article PMC12805357, “Cooperative ligand binding in a bacterial heme-based oxygen sensor” (The Journal of Biological Chemistry, 2025).
One block for each molecule: values may come before it.

Assays:
[1] = HemAT-Bs
[2] = parameters: method as in earlier work; conditions: myoglobins; ref 7 of the supplement (Faulkner et al., 1995)

n (Hill coefficient), O2 binding [1]: 0.45
Kd ([1]; read-out: Kd, equilibrium oxygen affinity): 10 µM
B1: HemAT-Bs: globin-coupled sensor from Bacillus subtilis, MCP output domain (protein, UniProt O07621 1-432, looked up)
Heme-based aerotactic …: MLFKKDRKQETAYFSDSNGQQKNRIQLTNKHADVKKQLKMVRLGDAELYVLEQLQPLIQENIVNIVDAFYKNLDHESSLMDIINDHSSVDRLKQTLKRHIQEMFAGVIDDEFIEKRNRIASIHLRIGLLPKWYMGAFQELLLSMIDIYEASITNQQELLKAIKATTKILNLEQQLVLEAFQSEYNQTRDEQEEKKNLLHQKIQETSGSIANLFSETSRSVQELVDKSEGISQASKAGTVTSSTVEEKSIGGKKELEVQQKQMNKIDTSLVQIEKEMVKLDEIAQQIEKIFGIVTGIAEQTNLLSLNASIESARAGEHGKGFAVVANEVRKLSEDTKKTVSTVSELVNNTNTQINIVSKHIKDVNELVSESKEKMTQINRLFDEIVHSMKISKEQSGKIDVDLQAFLGGLQEVSRAVSHVAASVDSLVILTEE

B2: hhMb: myoglobin comparison protein listed as hhMb in Table S2, literature values (protein, UniProt P68082 2-154, looked up)
Myoglobin: GLSDGEWQQVLNVWGKVEADIAGHGQEVLIRLFTGHPETLEKFDKFKHLKTEAEMKASEDLKKHGTVVLTALGGILKKKGHHEAELKPLAQSHATKHKIPIKYLEFISDAIIHVLHSKHPGDFGADAQGAMTKALELFRNDIAAKYKELGFQG
Midpoint 1 (mV vs SHE) [2]: 37 mV vs SHE
